# Bridge positions count the residues as written; N and C are the ends. Square brackets hold non-standard residues; d marks the D form. Ends that are not written are not given here. Aib = CC(C)(N)C(=O)O
# T1: human GIP receptor (human, UniProt P48546 22-466)
# T1 sequence (looked up): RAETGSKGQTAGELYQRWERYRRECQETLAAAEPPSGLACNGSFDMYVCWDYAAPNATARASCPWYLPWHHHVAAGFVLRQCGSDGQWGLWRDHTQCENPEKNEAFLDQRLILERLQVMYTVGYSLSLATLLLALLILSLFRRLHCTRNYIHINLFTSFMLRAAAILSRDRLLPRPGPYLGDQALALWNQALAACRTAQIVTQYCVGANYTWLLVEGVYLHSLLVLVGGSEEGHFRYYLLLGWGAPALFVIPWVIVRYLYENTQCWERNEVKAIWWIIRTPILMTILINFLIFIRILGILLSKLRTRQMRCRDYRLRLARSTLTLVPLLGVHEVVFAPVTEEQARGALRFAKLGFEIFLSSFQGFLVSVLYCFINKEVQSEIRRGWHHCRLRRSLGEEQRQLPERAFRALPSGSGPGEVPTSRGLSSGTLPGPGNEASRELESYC
# Target: T1, human GIP receptor
# Test: cell-based or functional assay
row,Binder,In vitro activity compared to native peptide (%) vs GIP [%]
1,H[Aib]QGTFTSDVSSYLDGQAAKEFIAWLVKGC [Triple agonist of SEQ ID NO: 1],< 0.1
2,H[Aib]QGTFTSDVSSYLLGQQQKEFIAWLVKGC [Triple agonist of SEQ ID NO: 4],< 0.1
3,H[Aib]QGTFTSDYSKYLDEKRQKEFVNWLLAQKC (bridge 16-20) [Triple agonist of SEQ ID NO: 34],0.6
4,H[Aib]QGTFTSDYSIAMDEIHQKDFVNWLLNTKC (bridge 16-20) [Triple agonist of SEQ ID NO: 35],1.3
5,H[Aib]QGTFTSDYSKYLCEKRQKEFVQWLLNGGPSSGAPPPSG (bridge 16-20) [Triple agonist of SEQ ID NO: 36],0.2
6,H[Aib]QGTFTSDYSKYLDECRQKEFVQWLLNGGPSSGAPPPSG (bridge 16-20) [Triple agonist of SEQ ID NO: 37],2.2
7,H[Aib]QGTFTSDYSKYLDGQHAQCFVAWLLAGGGPSSGAPPPS [Triple agonist of SEQ ID NO: 39],< 0.1
8,H[Aib]QGTFTSDKSKYLDERACQDFVQWLLDGGPSSGAPPPS [Triple agonist of SEQ ID NO: 40],< 0.1
9,H[Aib]QGTFTSDKSKYLDECAAQDFVQWLLDGGPSSGAPPPS [Triple agonist of SEQ ID NO: 41],< 0.1
10,Y[Aib]QGTFTSDYSKYLDEKRAKEFVQWLLDHHPSSGQPPPSC (bridge 16-20) [Triple agonist of SEQ ID NO: 42],7.8
11,Y[Aib]QGTFTSDYSKYLDEKRAKEFVQWLLDHHCSSGQPPPS (bridge 16-20) [Triple agonist of SEQ ID NO: 43],3.7
12,HGQGTFTSDCSKQLDGQAAQEFVAWLLAGGPSSGAPPPS [Triple agonist of SEQ ID NO: 44],< 0.1
13,H[Aib]QGTFTSDVSSYLLGQQQKEFIAWLVKGGGPSSGAPPPSC [Triple agonist of SEQ ID NO: 5],< 0.1
14,HGQGTFTSDCSKYMDGQAAQDFVAWLLAGGPSSGAPPPS [Triple agonist of SEQ ID NO: 45],< 0.1
15,HGQGTFTSDCSKYLDEQHAQEFVAWLLAGGPSSGAPPPS [Triple agonist of SEQ ID NO: 46],< 0.1

# Target: human GCG receptor (human, UniProt P47871 26-477)
# Sequence (P47871 26-477): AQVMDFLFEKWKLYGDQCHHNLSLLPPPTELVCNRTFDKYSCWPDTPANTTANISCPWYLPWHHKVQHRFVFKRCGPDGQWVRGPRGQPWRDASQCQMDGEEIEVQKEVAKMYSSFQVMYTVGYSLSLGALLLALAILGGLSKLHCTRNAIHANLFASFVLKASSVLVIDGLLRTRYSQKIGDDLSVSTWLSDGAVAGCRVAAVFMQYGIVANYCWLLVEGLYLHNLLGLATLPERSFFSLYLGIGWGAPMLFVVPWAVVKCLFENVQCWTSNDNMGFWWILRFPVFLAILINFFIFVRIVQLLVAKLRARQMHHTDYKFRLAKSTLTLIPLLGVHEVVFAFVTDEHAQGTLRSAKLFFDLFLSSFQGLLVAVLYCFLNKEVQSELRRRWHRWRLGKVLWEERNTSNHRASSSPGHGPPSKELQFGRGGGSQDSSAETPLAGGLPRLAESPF
# Test: cell-based or functional assay
row,Binder,In vitro activity compared to native peptide (%) vs Glucagon [%]
1,H[Aib]QGTFTSDVSSYLDGQAAKEFIAWLVKGC [Triple agonist of SEQ ID NO: 1],< 0.1
2,H[Aib]QGTFTSDVSSYLLGQQQKEFIAWLVKGC [Triple agonist of SEQ ID NO: 4],< 0.1
3,H[Aib]QGTFTSDYSKYLDEKRQKEFVNWLLAQKC (bridge 16-20) [Triple agonist of SEQ ID NO: 34],0.92
4,H[Aib]QGTFTSDYSIAMDEIHQKDFVNWLLNTKC (bridge 16-20) [Triple agonist of SEQ ID NO: 35],< 0.1
5,H[Aib]QGTFTSDYSKYLCEKRQKEFVQWLLNGGPSSGAPPPSG (bridge 16-20) [Triple agonist of SEQ ID NO: 36],0.39
6,H[Aib]QGTFTSDYSKYLDECRQKEFVQWLLNGGPSSGAPPPSG (bridge 16-20) [Triple agonist of SEQ ID NO: 37],6.21
7,H[Aib]QGTFTSDYSKYLDGQHAQCFVAWLLAGGGPSSGAPPPS [Triple agonist of SEQ ID NO: 39],0.53
8,H[Aib]QGTFTSDKSKYLDERACQDFVQWLLDGGPSSGAPPPS [Triple agonist of SEQ ID NO: 40],< 0.1
9,H[Aib]QGTFTSDKSKYLDECAAQDFVQWLLDGGPSSGAPPPS [Triple agonist of SEQ ID NO: 41],< 0.1
10,Y[Aib]QGTFTSDYSKYLDEKRAKEFVQWLLDHHPSSGQPPPSC (bridge 16-20) [Triple agonist of SEQ ID NO: 42],206
11,Y[Aib]QGTFTSDYSKYLDEKRAKEFVQWLLDHHCSSGQPPPS (bridge 16-20) [Triple agonist of SEQ ID NO: 43],88.4
12,HGQGTFTSDCSKQLDGQAAQEFVAWLLAGGPSSGAPPPS [Triple agonist of SEQ ID NO: 44],< 0.1
13,H[Aib]QGTFTSDVSSYLLGQQQKEFIAWLVKGGGPSSGAPPPSC [Triple agonist of SEQ ID NO: 5],< 0.1
14,HGQGTFTSDCSKYMDGQAAQDFVAWLLAGGPSSGAPPPS [Triple agonist of SEQ ID NO: 45],< 0.1
15,HGQGTFTSDCSKYLDEQHAQEFVAWLLAGGPSSGAPPPS [Triple agonist of SEQ ID NO: 46],< 0.1

# Target: human GLP-1 receptor (human, UniProt P43220 24-463)
# Test: cell-based or functional assay
row,Binder,In vitro activity compared to native peptide (%) vs GLP-1 [%]
1,H[Aib]QGTFTSDVSSYLDGQAAKEFIAWLVKGC [Triple agonist of SEQ ID NO: 1],3.2
2,H[Aib]QGTFTSDVSSYLLGQQQKEFIAWLVKGC [Triple agonist of SEQ ID NO: 4],8.5
3,H[Aib]QGTFTSDYSKYLDEKRQKEFVNWLLAQKC (bridge 16-20) [Triple agonist of SEQ ID NO: 34],19.1
4,H[Aib]QGTFTSDYSIAMDEIHQKDFVNWLLNTKC (bridge 16-20) [Triple agonist of SEQ ID NO: 35],7.5
5,H[Aib]QGTFTSDYSKYLCEKRQKEFVQWLLNGGPSSGAPPPSG (bridge 16-20) [Triple agonist of SEQ ID NO: 36],37.4
6,H[Aib]QGTFTSDYSKYLDECRQKEFVQWLLNGGPSSGAPPPSG (bridge 16-20) [Triple agonist of SEQ ID NO: 37],236
7,H[Aib]QGTFTSDYSKYLDGQHAQCFVAWLLAGGGPSSGAPPPS [Triple agonist of SEQ ID NO: 39],13.9
8,H[Aib]QGTFTSDKSKYLDERACQDFVQWLLDGGPSSGAPPPS [Triple agonist of SEQ ID NO: 40],75.2
9,H[Aib]QGTFTSDKSKYLDECAAQDFVQWLLDGGPSSGAPPPS [Triple agonist of SEQ ID NO: 41],34.3
10,Y[Aib]QGTFTSDYSKYLDEKRAKEFVQWLLDHHPSSGQPPPSC (bridge 16-20) [Triple agonist of SEQ ID NO: 42],33.9
11,Y[Aib]QGTFTSDYSKYLDEKRAKEFVQWLLDHHCSSGQPPPS (bridge 16-20) [Triple agonist of SEQ ID NO: 43],12.6
12,HGQGTFTSDCSKQLDGQAAQEFVAWLLAGGPSSGAPPPS [Triple agonist of SEQ ID NO: 44],1.3
13,H[Aib]QGTFTSDVSSYLLGQQQKEFIAWLVKGGGPSSGAPPPSC [Triple agonist of SEQ ID NO: 5],42.1
14,HGQGTFTSDCSKYMDGQAAQDFVAWLLAGGPSSGAPPPS [Triple agonist of SEQ ID NO: 45],6.6
15,HGQGTFTSDCSKYLDEQHAQEFVAWLLAGGPSSGAPPPS [Triple agonist of SEQ ID NO: 46],1.4
